One may read the Kd as the free concentration of one partner at which half of the binding sites on the other are occupied at equilibrium, for simple one-to-one binding.

One assay has as its target cyno HER2 on cells (cynomolgus monkey, UniProt A0A2K5WUT7 1-1225). In words: kinetic affinity (kon/koff); Pro51 format.
For another assay, the target named is human CA9 on cells (human, UniProt Q16790 38-459). In words: affinity; Pro51 format.
In the next assay the target is cyno CA9 on cells (cyno, UniProt A0A2K5VQG9 38-447). In words: affinity; Pro51 format.
cyno CA9 on cells, sequence (A0A2K5VQG9 entry or part of it): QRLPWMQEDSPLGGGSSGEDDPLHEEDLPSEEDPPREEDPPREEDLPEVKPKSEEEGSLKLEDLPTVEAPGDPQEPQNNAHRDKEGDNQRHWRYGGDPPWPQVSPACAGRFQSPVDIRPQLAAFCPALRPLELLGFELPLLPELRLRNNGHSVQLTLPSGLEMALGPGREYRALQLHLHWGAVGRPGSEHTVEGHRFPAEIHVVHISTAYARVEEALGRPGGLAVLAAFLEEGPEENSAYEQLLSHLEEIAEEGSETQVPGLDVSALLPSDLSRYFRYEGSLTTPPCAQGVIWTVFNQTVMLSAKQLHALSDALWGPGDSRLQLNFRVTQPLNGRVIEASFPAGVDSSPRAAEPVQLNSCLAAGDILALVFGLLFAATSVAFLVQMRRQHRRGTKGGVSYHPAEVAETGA
The target of a further assay is human HER2 on cells (human, UniProt P04626 23-1255). In words: kinetic affinity (kon/koff); Pro51 format.

B1: Pro1043 VIB1139 (bispecific antibody, V domains shown)
VH: QVQLQESGGGLVQPGGSLRLSCAASGFTFDDYAMSWIRQAPGKEMEWVSGINWSGTHTRYADSVKGRFTISRDNAKNTLDLQMNSLISEDTAVYYCARGFAADSRSTRGQGTQVTVSS
Consider B1, for which the Kd with cyno HER2 on cells was 6.7 nM.

B2: h1139 (Pro1060) (protein)
chain: QVQLVESGGGVVRPGGSLRLSCAASGFTFDDYAMSWIRQAPGKEMEWVSGINWSGTHTRYADSVKGRFTISRDNAKNSLYLQMNSLRAEDTALYYCARGFAADSRSTRGQGTLVTVSS
Take B2: the dissociation constant Kd with cyno HER2 on cells stood at 7.4 nM.

B3: h476 (Pro510) (antibody, V domains shown)
VH: QVQLVESGGGLVQPGGSLRLSCAASGNIFIINVMGWYRQAPGKQRELVATITNGGRTHYADSVKGRFTISRDNSKNTLYLQMNSLRAEDTAVYYCNANHIELGDYWGQGTLVTVSS
Take B3: the dissociation constant (Kd) with human CA9 on cells was 1.6 nM; with cyno CA9 on cells it was 1.2 nM.

B4: h456 (Pro509) (antibody, V domains shown)
VH: QVQLVESGGGLVQPGGSLRLSCAASGSALIINAMGWYRQAPGKQRELVATVTRSGRTNYADSVKGRFTISRDNSKNTLYLQMNSLRAEDTAVYYCNVALWIADGEYDYWGQGTLVTVSS
Take B4: the figures for the Kd with human CA9 on cells and with cyno CA9 on cells were 0.7 nM and 1.1 nM, respectively.

B5: 1160 (Pro1046) (antibody, V domains shown)
VH: QVQLQESGGGLVQAGGSLRLSCAASGRTFSNERLGWFRQAPGKERELVAAIRWSGVIIGYADSVRGRFTISRDNAKSTVYLQMNSLRPEDTAVYFCAADRGVYGTWDYWGQGTQVTVSS
In turn, B5 displayed a Kd with cyno HER2 on cells of 10.8 nM. This counts as double-digit nanomolar.

B6: 1121 (Pro1042) (protein)
chain: QVQLQESGGGLVQAGGSLRLSCAASGFIFSDYAMTWVRQAPGKGLEWVSSINWSGTHTNYADSVKGRFTISRDNAKKTLYLQMNSLKSEDTAVYYCARGWMVVPDSTRGQGTQVTVSS
B6: the Kd with cyno HER2 on cells was 4.6 nM.

B7: 1058 (Pro1037) (protein)
chain: QVQLQESGGGLVQPGGSLRLTCAASGRAISSYAISWFRQAPGEEREFVAAINWSGTHTNYADSVKGRFTISRDNVKNTVYLQMNSLKPEDTATYFCSRGWSVFDPDYRGQGTQVTVSS
Consider B7, for which the Kd with cyno HER2 on cells came out at 9.7 nM; with human HER2 on cells, 8.6 nM.

B8: Pro1038 VIB1059 (bispecific antibody, V domains shown)
VH: QVQLQESGGGLVQPGGSLRLTCAASGRAISSYAISWFRQAPGEEREFVAAINWSGTHTDYADSVKGRFTISRDNAKNTVYLQMNSLKPEDTAVYFCSRGWSVFDPDYRGQGTQVTVSS
For the molecule B8, the Kd in the assay with cyno HER2 on cells was 85 nM. In other words, the double-digit nanomolar range.

B9: Pro1036 VIB1055 (bispecific antibody, V domains shown)
VH: QVQLQESGGGLVQPGGSLRLTCEVSGRAISSYAISWFRQAPGEEREFVAAINWSGTHTNYADSVKGRFTISRDNVKNTVYLQMNSLKPEDTATYFCSRGWSVFDPDYRGQGTQVTVSS
As to B9, the dissociation constant Kd with cyno HER2 on cells was determined as 69.9 nM. This Kd and that of the molecule before are within 1.5-fold of each other.

B10: 1091 (Pro1039) (protein)
chain: QVQLQESGGGLVQPGGSLRLSCAASGFTFDDYAMSWVRQAPGKGLEWVSSINWSGTHTDYADSVKGRFTISRDNAKNTLYLQMNSLKSEDSAVYYCVKGWRLTGGYYDSVQGQGTQVTVSS
In turn, B10 returned a Kd with cyno HER2 on cells of 8.5 nM. This Kd lies about 8.2-fold lower than the previous one.

B11: 1092 (Pro1040) (protein)
chain: QVQLQESGGGLVQAGASLRLSCAASGFTFDDYALSWVRQAPGKGLEWVSSINWSGTHTDYADSVKGRFTISRDNAKNTLYLQMNSLKSEDSAVYYCVKGWRLTGGYYDSVQGQGTQVTVSS
The molecule B11 came in with a dissociation constant Kd with cyno HER2 on cells of 4.5 nM.

B12: 1097 (Pro1041) (protein)
chain: QVQLQESGGGLVQPGGSLRLSCAASGFIFDDYAMTWVRQAPGKGLEWVSSINWSGTHTDYADSVKGRFTISRDNAKNTLYLQMNSLKSEDSAVYYCVKGWRHTDNYYAGVQGQGTQVTVSS
In the assay with cyno HER2 on cells, B12 had an equilibrium dissociation constant (Kd) of 4.3 nM.

B13: h445 (Pro512) (antibody, V domains shown)
VH: QVQLVESGGGLVKPGGSLRLSCAASGITFNLHAMRWYRRAPGKQRELVAYISARDWTNYADSVKGRFTISRDNAKNSLYLQMNSLRAEDTAVYYCNTDLVGEDYWGRGTLVTVSS
Take B13: the Kd with human CA9 on cells was 3.1 nM; with cyno CA9 on cells it was 4.9 nM.

B14: Pro1045 VIB1159 (bispecific antibody, V domains shown)
VH: QVQLQESGGGLVQAGGSLRLSCATSGRTFSSLAMGWFRQAPGKERELVAGISWSGSTTYYADSVKGRFAISRDNAKNTVYLQMNSLKPEDTAVYYCAARTSSIATIGREYDYWGQGTQVTVSS
In the assay with cyno HER2 on cells, B14 registered a dissociation constant (Kd) of 17 nM.

B15: h1159 (Pro1062) (antibody, V domains shown)
VH: QVQLLESGGGLVQPGGSLRLSCATSGRTFSSLAMGWFRQAPGKERELVAGISWSGSTTYYADSVKGRFAISRDNSKNTLYLQMNSLRAEDTAVYYCAARTSSIATIGREYDYWGQGTLVTVSS
In the assay with cyno HER2 on cells, B15 displayed an equilibrium dissociation constant (Kd) of 37 nM.

B16: humanized aHER2 sdAb h1162 (VHH)
VHH: QVQLLESGGGLVQPGGSLRLSCAASGRPFSGNAMGWFRQAPGKEREFVAAISWSGDSTYYADSVKGRFTISRDNSKNTLYLQMNSLRAEDTAVYYCAATRSFYSRTYYTRPSDYNYWGPGTLVTVSS
In the assay with cyno HER2 on cells, B16 came in with a Kd of 21.8 nM.

B17: Pro1047 VIB1162 (bispecific antibody, V domains shown)
VH: QVQLQESGGGLVQAGGSLRLSCAASGRPFSGNAMGWFRQAPGKEREFVAAISWSGDSTYYADSVKGRFTISRDNDENTAYLQMNSLKPEDTAVYYCAATRSFYSRTYYTRPSDYNYWGPGTQVTVSS
In the assay with cyno HER2 on cells, B17 had a Kd of 21.2 nM.

B18: Pro1044 VIB1156 (bispecific antibody, V domains shown)
VH: QVQLQESGGGLVQAGGSLKVSCAASRNIGSNYAVGWFRQAPGKEREPVAALRWTGSIIGYDDSLRGRFTISKDDAKNTVYLQMNSLKPEDTGVYYCAARILDRSSYDYWGQGTQVTVSS
As to B18, in the assay with cyno HER2 on cells, the Kd came out at 9 nM.

(Values after patent US20240026011A1 (published 2024).)
